{"source": "patent US8268550B2", "about": "“Compositions and methods for identification of PARP function, inhibitors, and activators” (Massachusetts Institute of Technology, priority 2009, dated 2012)", "test_system": "293T cells", "assay": "Modified pGL4.72[hRlucCP] vector luciferase assay of RNAi/miRNA activity", "type": "cell-based", "conditions": "overexpression from pEGFP-C1; 10 nM vector-target RNAi; 48 hours post-transfection; FIG. 30", "experimental": "To identify additional substrate proteins of PAPR13, immunoprecipitation experiments were performed on lysate from HeLa cells transfected with a pEGFP-C1 plasmid containing a sequence encoding a PARP13-GFP fusion protein following treatment with either 0 or 250 μM sodium arsenite for 30 minutes. The cell lysate was treated with an anti-GFP antibody and the resulting immunoprecipitated proteins were electrophoresed using SDS-PAGE. […] In a second set of experiments, the ability of the vector-target RNAi to reduce the expression of luciferase was measured in 293T cells transfected with pGL4.72[hRlucCP]™ vector, 20 nM vector-target RNAi, and 20 nM of negative RNAi control for PARP13 siRNA (siNeg; AllStars Negative Control siRNA; Qiagen Catalog No. 1027280) or PARP13 siRNA (siPARP13; SEQ ID NO: 40) following treatment with 0 or 30 nM pateamine A for 2 hours. […]\nExperiments to determine the effect of knockdown of PARP13 on miRNA and RNAi activity were performed using a modified pGL4.72[hRlucCP]™-vector assay (Promega). […] Following 48-hours incubation, the level of luciferase protein production was measured using a luciferase assay kit (Promega). […]", "data": [{"molecule": "PARP13: PARP13 overexpressed from a pEGFP-C1 expression vector; isoform not specified (protein) ADPEVCCFITKILCAHGGRMALDALLQEIALSEPQLCEVLQVAGPDRFVVLETGGEAGITRSVVATTRARVCRRKYCQRPCDNLHLCKLNLLGRCNYSQSERNLCKYSHEVLSEENFKVLKNHELSGLNKEELAVLLLQSDPFFMPEICKSYKGEGRQQICNQQPPCSRLHICDHFTRGNCRFPNCLRSHNLMDRKVLAIMREHGLNPDVVQNIQDICNSKHMQKNPPGPRAPSSHRRNMAYRARSKSRDRFFQGSQEFLASASASAERSCTPSPDQISHRASLEDAPVDDLTRKFTYLGSQDRARPPSGSSKATDLGGTSQAGTSQRFLENGSQEDLLHGNPGSTYLASNSTSAPNWKSLTSWTNDQGARRKTVFSPTLPAARSSLGSLQTPEAVTTRKGTGLLSSDYRIINGKSGTQDIQPGPLFNNNADGVATDITSTRSLNYKSTSSGHREISSPRIQDAGPASRDVQATGRIADDADPRVALVNDSLSDVTSTTSSRVDDHDSEEICLDHLCKGCPLNGSCSKVHFHLPYRWQMLIGKTWTDFEHMETIEKGYCNPGIHLCSVGSYTINFRVMSCDSFPIRRLSTPSSVTKPANSVFTTKWIWYWKNESGTWIQYGEEKDKRKNSNVDSSYLESLYQSCPRGVVPFQAGSRNYELSFQGMIQTNIASKTQKDVIRRPTFVPQWYVQQMKRGPDHQPAKTSSVSLTATFRPQEDFCFLSSKKYKLSEIHHLHPEYVRVSEHFKASMKNFKIEKIKKIENSELLDKFTWKKSQMKEEGKLLFYATSRAYVESICSNNFDSFLHETHENKYGKGIYFAKDAIYSHKNCPYDAKNVVMFVAQVLVGKFTEGNITYTSPPPQFDSCVDTRSNPSVFVIFQKDQVYPQYVIEYTEDKACVIS", "values": [{"measurement": "decrease in the level of miRNA-mediated repression compared to control cells (EGFP- and G3BP-overexpressing cells)", "result": 3, "unit": "fold"}]}]}
